The text below walks through data of patent publication US20060241051A1 (Takeda / Millennium, published 2006).

Usually IC50 stands for the concentration at which inhibition is half-maximal. Read a high IC50 as weaker potency.

Test [1] concerns the target T1, human OT7T175 (metastin receptor) (human, UniProt Q969F8 1-398). Description: cell-based or functional assay.
The target of test [2] is T1, human OT7T175 (metastin receptor). Description: FMAT competition with Cy-5-labeled metastin (40-54), hOT7T175-expressed CHO cells.
For test [3] the target is unchanged. Description: cell-based or functional assay. This is another data set of the same source.

Read-outs that look alike come from different tables or passages of the source. Numbered stars: 1 amine (or outer) side, 2 acyl side, 3 side chain; on linkers, the order of the positions; unused ones are H or OH. Square brackets hold non-standard residues; d marks the D form. Ends that are not written are not given here. * marks the point of attachment. Ala(2-Qui) = 2-quinolylalanine, O=C([C@H](Cc1ccc2ccccc2n1)N[*:1])[*:2]; Phe(4-NH2) = Nc1ccc(C[C@H](N)C(=O)O)cc1; Phe(4-F) = N[C@@H](Cc1ccc(F)cc1)C(=O)O; Arg(Me) = CNC(=N)NCCC[C@H](N)C(=O)O; Fmoc = O=C(OCC1c2ccccc2-c2ccccc21)*; 4Pal = N[C@@H](Cc1ccncc1)C(=O)O; d3Pal = N[C@H](Cc1cccnc1)C(=O)O; d4Pal = N[C@H](Cc1ccncc1)C(=O)O; Cha = N[C@@H](CC1CCCCC1)C(=O)O; Orn = NCCC[C@H](N)C(=O)O; azaGly = NNC(=O)O

T1 sequence (Q969F8 whole entry L364H): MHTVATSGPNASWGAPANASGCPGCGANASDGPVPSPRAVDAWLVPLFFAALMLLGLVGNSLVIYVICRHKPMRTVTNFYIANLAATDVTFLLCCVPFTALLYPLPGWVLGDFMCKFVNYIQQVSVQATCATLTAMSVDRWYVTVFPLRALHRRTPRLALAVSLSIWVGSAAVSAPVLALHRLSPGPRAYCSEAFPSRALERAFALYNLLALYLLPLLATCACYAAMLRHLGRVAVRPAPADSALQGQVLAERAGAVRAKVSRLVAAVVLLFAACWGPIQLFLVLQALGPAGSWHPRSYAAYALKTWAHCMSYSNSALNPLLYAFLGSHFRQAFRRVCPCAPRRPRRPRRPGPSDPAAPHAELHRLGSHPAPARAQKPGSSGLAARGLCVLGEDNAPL

In the case of YNWNSFGLXF (Nar(Me)9; C-terminal amide) [Compound No. 311: [Nar(Me)9]MS10], the “intracellular Ca ion level-increasing activity (FLIPR)” value in test [1] was 1 specific activity to metastin (1-54). Moreover, the IC50 in test [2] was determined as 470 nM.

B1: Compound No. 317: [D-Tyr1,D-Asn2,Pya(4) 3,AzaGly7,Arg(Me)9,Phe(4F)10]MS10 (peptide)
peptide: [dY][dN][4Pal]NSF[azaGly]L[Arg(Me)][Phe(4-F)]-NH2
modifications: N-terminus assumed
SMILES: CNC(=N)NCCC[C@H](NC(=O)[C@H](CC(C)C)NC(=O)NNC(=O)[C@H](Cc1ccccc1)NC(=O)[C@H](CO)NC(=O)[C@H](CC(N)=O)NC(=O)[C@H](Cc1ccncc1)NC(=O)[C@@H](CC(N)=O)NC(=O)[C@H](N)Cc1ccc(O)cc1)C(=O)N[C@@H](Cc1ccc(F)cc1)C(N)=O
As to B1, the “intracellular Ca ion level-increasing activity (FLIPR)” value in test [1] is 1 specific activity to metastin (1-54). In test [2], this molecule returned an IC50 of 2.1 nM.

Regarding [dY]N[d4Pal]NSF[azaGly]L[Arg(Me)]F-NH2 [Compound No. 302: [D-Tyr1,D-Pya(4) 3,AzaGly7,Arg(Me)9]MS10], in test [1], the “intracellular Ca ion level-increasing activity (FLIPR)” value was 2 specific activity to metastin (1-54). This molecule came in with an IC50 in test [2] of 7.7 nM.

As to {4‑Imidazoleacetyl}-NSF[azaGly]L[Arg(Me)]F-NH2 [Compound No. 323: des(1-3)-4-Imidazoleacetyl-[AzaGly7,Arg(Me)9]MS10], the “intracellular Ca ion level-increasing activity (FLIPR)” value in test [1] is 1 specific activity to metastin (1-54). In test [2], the IC50 was 280 nM.

As to Fmoc-NSFGL[Arg(Me)]F-NH2 [Compound No. 144: des(1-3)-Fmoc-[Arg(Me)9]MS10], the “intracellular Ca ion level-increasing activity (FLIPR)” value in test [3] is 1 specific activity to metastin (1-54).

For the molecule YNWNSFGLXF (Nar9; C-terminal amide) [Compound No. 310: [Nar9]MS10], the “intracellular Ca ion level-increasing activity (FLIPR)” value in test [1] is 3 specific activity to metastin (1-54). The IC50 in test [2] was 310 nM.

In the case of Y[dN][4Pal]NSF[azaGly]L[Arg(Me)]F-NH2 [Compound No. 304: [D-Asn2,Pya(4) 3,AzaGly7,Arg(Me)9]MS10], in test [1], the “intracellular Ca ion level-increasing activity (FLIPR)” value is 3 specific activity to metastin (1-54). This molecule also had an IC50 in test [2] of 5 nM.

Molecule YNWNSFGLRX (Nal(1)10; C-terminal amide) [Compound No. 133: [Nal(1)10]MS10] displayed an IC50 in test [2] of 330 nM. In addition, the “intracellular Ca ion level-increasing activity (FLIPR)” value in test [3] is 3 specific activity to metastin (1-54).

B2: Compound No. 301: [D-Tyr1,Ala(2-Qui) 3,AzaGly7,Arg(Me)9]MS10 (peptide)
peptide: [dY]N[Ala(2-Qui)]NSF[azaGly]L[Arg(Me)]F-NH2
modifications: N-terminus assumed
SMILES: CNC(=N)NCCC[C@H](NC(=O)[C@H](CC(C)C)NC(=O)NNC(=O)[C@H](Cc1ccccc1)NC(=O)[C@H](CO)NC(=O)[C@H](CC(N)=O)NC(=O)[C@H](Cc1ccc2ccccc2n1)NC(=O)[C@H](CC(N)=O)NC(=O)[C@H](N)Cc1ccc(O)cc1)C(=O)N[C@@H](Cc1ccccc1)C(N)=O
B2: in test [1], the “intracellular Ca ion level-increasing activity (FLIPR)” value is 1 specific activity to metastin (1-54). Also, in test [2], the half-inhibitory concentration (IC50) stood at 15 nM.

B3: Compound No. 291: [D-Pya(3)1,D-Tyr2,Cha3,AzaGly7,Arg(Me)9]MS10 (peptide)
peptide: [d3Pal][dY][Cha]NSF[azaGly]L[Arg(Me)]F-NH2
modifications: N-terminus assumed
SMILES: CNC(=N)NCCC[C@H](NC(=O)[C@H](CC(C)C)NC(=O)NNC(=O)[C@H](Cc1ccccc1)NC(=O)[C@H](CO)NC(=O)[C@H](CC(N)=O)NC(=O)[C@H](CC1CCCCC1)NC(=O)[C@@H](Cc1ccc(O)cc1)NC(=O)[C@H](N)Cc1cccnc1)C(=O)N[C@@H](Cc1ccccc1)C(N)=O
For the molecule B3, the “intracellular Ca ion level-increasing activity (FLIPR)” value in test [1] was 2 specific activity to metastin (1-54). This molecule returned a half-inhibitory concentration (IC50) in test [2] of 0.41 nM.

B4: Compound No. 296: [6Ψ7,CSNH,D-Tyr1,Arg(Me)9]MS10 (peptide)
peptide: [dY]NWNSFGL[Arg(Me)]F-NH2
modifications: also: Phe6-Gly7 thioamide (CSNH)
notes: also called [6y7,CSNH,D-Tyr1,Arg(Me)9]MS10
Regarding B4, the “intracellular Ca ion level-increasing activity (FLIPR)” value in test [1] is 3 specific activity to metastin (1-54). Also, the half-maximal inhibitory concentration (IC50) in test [2] turned out to be 14 nM.

B5: Compound No. 314: [Orn9]MS10 (peptide)
peptide: YNWNSFGL[Orn]F-NH2
modifications: N-terminus assumed
SMILES: CC(C)C[C@H](NC(=O)CNC(=O)[C@H](Cc1ccccc1)NC(=O)[C@H](CO)NC(=O)[C@H](CC(N)=O)NC(=O)[C@H](Cc1c[nH]c2ccccc12)NC(=O)[C@H](CC(N)=O)NC(=O)[C@@H](N)Cc1ccc(O)cc1)C(=O)N[C@@H](CCCN)C(=O)N[C@@H](Cc1ccccc1)C(N)=O
Take B5: the “intracellular Ca ion level-increasing activity (FLIPR)” value in test [1] is 1 specific activity to metastin (1-54). The molecule also yielded an IC50 in test [2] of 470 nM.

In test [2], YN[dW]NSFGL[Arg(Me)]F-NH2 [Compound No. 143: [D-Trp3,Arg(Me)9]MS10] gave an IC50 of 7.7 nM. The “intracellular Ca ion level-increasing activity (FLIPR)” value in test [3] is 3 specific activity to metastin (1-54).

B6: Compound No. 306: [D-Pya(4)1,D-Asn2,Cha3,AzaGly7,Arg(Me)9]MS10 (peptide)
peptide: [d4Pal][dN][Cha]NSF[azaGly]L[Arg(Me)]F-NH2
modifications: N-terminus assumed
SMILES: CNC(=N)NCCC[C@H](NC(=O)[C@H](CC(C)C)NC(=O)NNC(=O)[C@H](Cc1ccccc1)NC(=O)[C@H](CO)NC(=O)[C@H](CC(N)=O)NC(=O)[C@H](CC1CCCCC1)NC(=O)[C@@H](CC(N)=O)NC(=O)[C@H](N)Cc1ccncc1)C(=O)N[C@@H](Cc1ccccc1)C(N)=O
As to B6, the “intracellular Ca ion level-increasing activity (FLIPR)” value in test [1] is 2 specific activity to metastin (1-54). Also, in test [2], the IC50 is 4.4 nM.

As for YNWNSFGLXF (Har(Me)9; C-terminal amide) [Compound No. 312: [Har(Me)9]MS10], the “intracellular Ca ion level-increasing activity (FLIPR)” value in test [1] was 3 specific activity to metastin (1-54). Moreover, the IC50 in test [2] came out at 100 nM.

YNWNSFGLR[Phe(4-NH2)]-NH2 [Compound No. 131: [Phe(4NH2)10]MS10] had an IC50 in test [2] of 120 nM. The “intracellular Ca ion level-increasing activity (FLIPR)” value in test [3] was 3 specific activity to metastin (1-54).

Turning to YNWNSFGLRW-NH2 [Compound No. 134: [Trp10]MS10], the half-inhibitory concentration (IC50) in test [2] is 110 nM. For the same molecule, the “intracellular Ca ion level-increasing activity (FLIPR)” value in test [3] is 30 specific activity to metastin (1-54).

B7: Compound No. 170: [D-Tyr1,Ser3,Arg(Me)9]MS10 (peptide)
peptide: [dY]NSNSFGL[Arg(Me)]F-NH2
modifications: N-terminus assumed
SMILES: CNC(=N)NCCC[C@H](NC(=O)[C@H](CC(C)C)NC(=O)CNC(=O)[C@H](Cc1ccccc1)NC(=O)[C@H](CO)NC(=O)[C@H](CC(N)=O)NC(=O)[C@H](CO)NC(=O)[C@H](CC(N)=O)NC(=O)[C@H](N)Cc1ccc(O)cc1)C(=O)N[C@@H](Cc1ccccc1)C(N)=O
Turning to B7, the half-inhibitory concentration (IC50) in test [2] amounted to 260 nM. For the same molecule, the “intracellular Ca ion level-increasing activity (FLIPR)” value in test [3] was 1 specific activity to metastin (1-54).

B8: Compound No. 169: [D-Tyr1,Ala3,Arg(Me)9]MS10 (peptide)
peptide: [dY]NANSFGL[Arg(Me)]F-NH2
modifications: N-terminus assumed
SMILES: CNC(=N)NCCC[C@H](NC(=O)[C@H](CC(C)C)NC(=O)CNC(=O)[C@H](Cc1ccccc1)NC(=O)[C@H](CO)NC(=O)[C@H](CC(N)=O)NC(=O)[C@H](C)NC(=O)[C@H](CC(N)=O)NC(=O)[C@H](N)Cc1ccc(O)cc1)C(=O)N[C@@H](Cc1ccccc1)C(N)=O
Take B8: in test [2], the IC50 is 160 nM. Besides, the “intracellular Ca ion level-increasing activity (FLIPR)” value in test [3] was 2 specific activity to metastin (1-54).

B9: Compound No. 174: [D-Tyr1,Arg(Me)9,Trp10]MS10 (peptide)
peptide: [dY]NWNSFGL[Arg(Me)]W-NH2
modifications: N-terminus assumed
SMILES: CNC(=N)NCCC[C@H](NC(=O)[C@H](CC(C)C)NC(=O)CNC(=O)[C@H](Cc1ccccc1)NC(=O)[C@H](CO)NC(=O)[C@H](CC(N)=O)NC(=O)[C@H](Cc1c[nH]c2ccccc12)NC(=O)[C@H](CC(N)=O)NC(=O)[C@H](N)Cc1ccc(O)cc1)C(=O)N[C@@H](Cc1c[nH]c2ccccc12)C(N)=O
As to B9, in test [2], the IC50 is 420 nM. In addition, the “intracellular Ca ion level-increasing activity (FLIPR)” value in test [3] was 10 specific activity to metastin (1-54).
